Test results from IntAct's records for PubMed 17069809.

B1: Parabutoporin (Parabuthus schlechteri), P83312 (parent)
chain: FKLGSFLKKAWKSKLAKKLRAKGKEMLKDYAKGLLEGGSEEVPGQ

Variants of: B1
Details: with kpca_human PRKCA

| Variant | effect of a mutation on the interaction |
| --- | --- |
| S5A;S13A | disrupting interaction |
